We go through 18 sequences from the DeepSol protein solubility set.

A short description of the data set: soluble on expression in E. coli; label from the status in PepcDB or PDB records.
Regarding “MTNFRPCFLIPCYNHGKTIPAVVESLMSYGYPMIIVDDGSENETKRILEEVTQHNESITLITLAENQGKGGAVIAGIEKAYQQSYSHAIQIDADGQHDLEALPKLIAESQEHPTALISGQPIYDESVPKSRLYGRYATHIWVWIETLSFTIKDSMCGFRSYPIGPTINVLERAVLGRRMDFDTEIMVRMYWNETDIRFINTRVIYPEDGISHFDALWDNVKISWMHTKLFFGMLPRIPSLLKRKPVQEDHWSSHAERGTILGIQFLLWIYSTFGRKVFSLLLKPVMAYYYLRGGSVKDASDDFIQQVNAYARIKGIQLPEKLTTYRHLVSFGETMLDKLAAWRGDFSDKNLTVHGIEHYQTLAQREKGIVLLGSHLGNLELCRALSRRHTHLKINALVFTEHAERFNTVMKTVNPQSEVNVIQVSKIGPDTAILLQQKIDDGEWIVIVGDRTSVTKENRVIWADFLGKPAPFPQGPFMLASILKQPVYLMFGLRDDTQKDPLFDVYLEPFSEQIILPRGKREEALQEVVQNYAQRLEHFTLKAPSQWYNFFNFWQLTGKKDDNLEHHHHHH”, the “soluble on expression in E. coli” value is on record as “soluble”. For “MTNGIFKHSNQSILEDQDHVKKSTVEILMPAYVIGGPIRSIRVDKDRLFVLGMKNHPEVIDLTQMSHGTSLILEKIMSGNRYYTTQISMNQAAELCHVAHELKLVNLLKLVEMDMIRRPSTSMKHAVDALVLALKFGMLEAVNKLIDEIIFEFFNGLGLVGYCKSSTALEMIFDKNEMMLKEEIEVGRLNSEWNEPLPVGQEVVPSLPRGNNAQIPRIMLNVAKERIRSLVARPINSVKNGFAWISAQNLRRRGPRNHQDFPNFPD” the value was “not soluble”.

As to “MTNIFTPIEEALEAYKNGEFLIVMDDEDRENEGDLIMAAELITQEKMAFLVRYSSGYVCVPLSEERANQLELPPMLANRSDRHGTAYTITCDFAEGTTTGISAHDRALTTRSLANPNSKPQDFIKPGHILPLRAVPGLLKKRRGHTEAAVQLSTLAGLQPAGVICELVRDEDGLMMRLDDCIQFGKKHGIKIININQLVEYISK”, the “soluble on expression in E. coli” value was “soluble”. “MTNITASIVLYNNPIDQIRQCIESMQADTRVHVLLVDNSEKKGGYTGLAADNVEILDAPGNVGFGRGHNLVLGRLAALRSEVHLVVNPDIVVSAGCVQAVADVLRQRKDVTLVGPRVVSPDGALYRSCKLLPTPWNLFARRFAPRQLYAAADARYELEAFGYDRELRLHNLSGAFLAFRSEAFTALGGFDPRYFMYLEDVDICRRAAGLGAVIFLPQAEVVHEHGKGSYRSWRLLREHMRSAILYFNRFGWFVDAERRLLNRETLARVNDMRSVVLEHHHHHH”: the “soluble on expression in E. coli” value is listed as “not soluble”. In the case of “MTNLEIEYKTLLTKNEYNRLLSQMKHVTPVTQTNYYIDTKAFDLKANKMSLRIRTFVNSAELTLKVPEKVGNREYNVPLFLEQAKDMIKHGNLPESTALDIIISKGIKPSALVTFGNLTTVRRETVIPIGKLALDYNLYANTKDYELELEVSDALQGKIDFDSFLSEYHITFKYAKSKVARCINTLKKFNDK”, the “soluble on expression in E. coli” value was “not soluble”.

Regarding “MTNLMSALSKLSQALDSKNIGEVLLALQNFDEEFSAEKCEDVFVRCLQEIISWDLTVSLEISETVVRQMMNRLENQAVLEEMCNYIIKQQSSVTVEIAVEIMIEHGWILRTDDCREVWKQIESAKNTEKIEILARRMTANCRILRLSGAPKRFLEKLLKDVIISLNANKVNIPMKFLNELAIVSPFHPILVIEDFKKDSEYFYIPHVVSEETRFHLEVKEFTNFFQIESTYHKEQACQMLQVFNQIYKRMELIPQLEAPEIDKIVEFWLAALRIFNGYGIGMNDITESAKLLEKTASRYSLKSRPLFLKHFLKKISEKKDTNIGLEPQVVATIITTYQRNAFGLRSPEFYEELGEFWALCLKIKYDDVYFATVYFSAVFALAQAQAVFKIKKELCREVYHKILQPMHEQLVDFVKLKQVESNKATSEEEVMRLEHQNIGASYFSILTCTYKNAEDRILEFMKEN”, the “soluble on expression in E. coli” value is “not soluble”. For the sequence “MTNLTLDVNIIDFPSIPVAMLPHRCSPELLNYSVAKFIMWRKETGLSPVNQSQTFGVAWDAPATTAPEAFRFDICGSVSEPIPDNRYGVSNGELTGGRYAVARHVGELDDISHTIWGIIRHWLPASGEKMRKAPILFHYTNLAEGVTEQRLETDVYVPLA”, the “soluble on expression in E. coli” value is “not soluble”.

For the sequence “MTNPGDGAAGAVDCATLDHWRPRLAAIAAAAGQDDAAHDLGHLRRVWGAARAMLQAHPEADALVVLAASYLHDLVNLPKNHPERHLASRQAAAAARERLARAGFPAARLDAVAHAIEAHSFSAGIAPRTIEARIVQDADRLDALGPVGLARMFHVGGSLGRALAHPSDPLAAQRALDDSRYTLDHIEAKLARLPHGMQTEAGRRLGEQRLAWLRDFRAAFAAQWGGGQLRLEHHHHHH”, the “soluble on expression in E. coli” value is reported as “soluble”. For “MTNQNVLLNISGVKFVLRIPNAVNLSLINREYEAFNNAQAYRAGLNVETPVLDAKSGVKLTRYLENSNTLSQIQLNEQSCLSQVVNNLYRLHNSEFVFRNVFSVFDEFRQYFSLLENKSAFYQADSRMDKLSAVFWQFEEINKEVILRPCHNDLVPENMLLQDDRLFFIDWEYSGLNDPLFDIATIIEEAHLSKEAADFLLETYCNQTNKYHKTEFQIAHKRLKIHRFCQNVLWFLWTKVKEEHGENFGDYALKRLDAAFKLLEELPLEHHHHHH” the value was “not soluble”; for “MTNVLYQHGTLGTLMAGLLEGTATINELLEHGNLGIATLTGSDGEVIFLDGKAYHANEHKEFIELKGDEKVPYASITNFKASKTFPLQQLSQDDVFAQIKNEMLSENLFSAVKIYGTFKHMHVRMMPAQQPPYTRLIDSARRQPEEKRQDIRGAIVGFFTPELFHGVGSAGFHIHFADDERAYGGHVLDFEVDDVVVEIQNFETFQQHFPVNNETFVKAKIDYKDVAEEIREAE”, “soluble”.

For “MTPTTTPVSNPDALSTGTQDVHTLKGTLQRLAPGTPLRDGLDRIVRGHTGALIVIGDDENVSSICDGGFEFDVSFAATRLRELCKMDGAVILSSDLERIKRANVQLLPSPTWPTQESGTRHRSAERTALHTGVPVIAVSESQNTITLYVEGKSHMLEQPAALLNRANQALGTMERYRDRLDQVNNRLHLAELHSYVTVIDVVSVIQREEMLRRVGEIIDGDVLELGKDAKEIQIQLSELRGDNDRERESIIADYLVTDGIPADEEIHAALEAISHLDDKALLNPANIARVLGLPPTEEALDEPVTPRGYRTLNRIPRVQKFLMDKLIVEFGNLDALLNASVEDLSAVDGVGSLWARHITDGLGRLS”, the “soluble on expression in E. coli” value is recorded as “not soluble”. As for “MTQPPASTSGIMGTLSSWNLKILQINQLHLVHWNAVKFENFEDAALEENGLAVIGVFLKISETSGSPVSTGRPKPLARKLRPAQKHWVLQSRPFLSSQVQENCKVTYFHRKHWVRIRPLRTTPPSWDYTRICIQREMVPARIRVLREMVPEAWRCFPNRLPLLSNIRPDFSKAPLAYVKRWLWTARHPHSLSAAW”, the “soluble on expression in E. coli” value was “soluble”.

As to “MTQTLLAIENLSVGFRHQQTVRTVVNDVSLQIEAGETLALVGESGSGKSVTALSILRLLPSPPVEYLSGDIRFHGESLLHASDQTLRGVRGNKIAMIFQEPMVSLNPLHTLEKQLYEVLSLHRGMRREAARGEILNCLDRVGIRQAAKRLTDYPHQLSGGERQRVMIAMALLTRPELLIADEPTTALDVSVQAQILQLLRELQGELNMGMLFITHNLSIVRKLAHRVAVMQNGRCVEQNYAATLFASPTHPYTQKLLNSEPSGDPVPLPEPASTLLDVEQLQVAFPIRKGILKRIVDHNVVVKNISFTLRAGETLGLVGESGSGKSTTGLALLRLINSQGSIIFDGQPLQNLNRRQLLPIRHRIQVVFQDPNSSLNPRLNVLQIIEEGLRVHQPTLSAAQREQQVIAVMHEVGLDPETRHRYPAEFSGGQRQRIAIARALILKPSLIILDEPTSSLDKTVQAQILTLLKSLQQKHQLAYLFISHDLHVVRALCHQVIILRQGEVVEQGPCARVFATPQQEYTRQLLALS”, the “soluble on expression in E. coli” value is listed as “not soluble”.

With “MTRAILFDLDGTLVDTRAASWQLFSETNLAFALGIDSREAFFRAFEGNFFESLAKLCPDPQRAAAVKAHFMELLRTRYHPALIPGMVDVVRALAPHSTLAVISTNGIEAIRRILVGADLANCFSHVFSGDVEPRKAVSIRRFLGDHRYAVHRACSPAYHDGEASHASLQAQDVVLVTDTVGDVREAREAGIRAIGVTWGMHSERQLLDAGAERVALWPQELVAWLRDADAPATSCGCSSGSADSCALPPAPAPAVRAAAAPPTGDPVREVARHRRERQLHTRLQAAAATAPAAPGASMASAASGPSARTELMSSLQRILREGDH”, the “soluble on expression in E. coli” value was “not soluble”. “MTRKFLNILKERTGVESITREQVRGIRRLVKKAREWDERKAQRYAKSAGKISDEEYSRLWSIDSYVISDSDKEKLKNLDQKTVFNNIMWLSRNAEKIDSNMKKFLGMHVWVVNYWIKTVGSATVRKFLRENNYSGEFVYFLYRYFNL”: the “soluble on expression in E. coli” value is “not soluble”. With “MTRPIGIYEKATPKHFNWLERLQFAKELGFDFVELSIDESDERLARLEWSKEERLELVKAIFETGVRVPTITFSGHRRFPMGSNNPEKEARAMDMMKKCIVFAQDIGIRNIQLAGYDVYYEEKSPETRARFIKNLRQACTWAEEAQVILSIEIMDDPFMNSIEKYLAVEKEIDSPYLFVYPDTGNVSAWHNDLWSEFYNGHRSIAALHIKDTYAVTETSKGQFRDVPFGQGCVDWEEMFAVIKKTNYNGPFLIEMWSENCETVEETRAAIKEAQDFLYPLMEKTGVK”, the “soluble on expression in E. coli” value was “not soluble”. In the case of “MTSALPRPAPSPYARRKTALVIGAGFGGLALGIRLQSLGFDTTILERLDGPGGRAYQKRTPDGYVFDMGPTVLTVPHFIEELFALERDRAGLDAPDYPPEVLSGERVKEGVSGGPHTSRYVTLVPILPFYRIVFHDGTYFDYDGDPESTRRQIAELAPGDLAGYERFHADAEAIFRRGFLELGYTHFGDVPTMLRVVPDLLKLDAVRTLFSFTSKYFQSDKLRQVFSFETLLVGGNPLSVPAIYAMIHFVEKTWGIHYAMGGTGALVRGLVQKFEELGGAIRYGAGVDEVLVDGNLPGKRTARGVRLESGEELRADLVASNGDWANTYLKRVRPSARLVNSDLRVKAASESMSLLVVYFGFRGGDDLPLKHHNILLGPRYEALLSEIFGTKRLGEDFSQYLHVPTLTDPALAPAGHHAAYTLVPVPHNGSGIDWDVEGPKLAEAALADIERRGLIPGLRERLTHFEFITPDYFAGTLDSYLGNAFGPEPRLVQSAFFRPHNRSEDLHNFYLVGAGAQPGAGTPSVMMSAKMTARLIAEDFGIHADIRRLEHHHHHH” it was “not soluble”; in that of “MTSIEWDEKTFTKFAYLSDPRTRKNLVAYVLTKANLESNKYENTIVIENLEDGSRKFIEDASMPRISPDGKKIAFMRFNEEKKTAQIWVADLKTLSAKKVLEAKNIRSIEWNQDSRRLLAVGFKRREDEDFIFEDDVPAWFDNMGFFDGEKTTFWVIDTEGEEVIEQFEKPRFSSGIWHGDSIVVSVPHRDVIPRYFKYWDIYLWKDGEEEKLFEKVSFYAIDSDGERILLYGKPEKKYVSEHDKIYIYDGEVKGILDDIDREVAQAKIRNGKVYFTLFEEGSVNLYLWDGEVREIAKGKHWIMGFDADERLIYLKETATRPAELYLWDGEERQLTDYNGLIFKKLKTFEPRHFRFKSIDLELDGWYIKPEIKEGEKAPVIVFVHGGPKGMYGYYFKYEMQLMASKGYYIVYVNPRGSNGYSEDFALRVLERTGLEDFQDILNGIEEFLRLEPQADRERIGITGISYGGYMTNWALTQSDLFKAGISENGISYWLTSYAFSDIGLWFDKEVIGDNPLENENYRKLSPLFYAKNVKAPLLLIHSLEDYRCPLDQSLMFYHVLKDLGKEVYIAIFKKGAHGHSIRGSPRHRMKRYKLFMEFFERKLKKYEEGFDVEKILKEEKK”, “soluble”.
